Assay results as given in the supplement of paper PMC10724198.
± gives the standard deviation of the averaged measurements.

What was measured:
Saccharomyces cerevisiae [1] = test: protein stability index of tFT-peptide fusion (C-terminal peptide) (PSI (0-1 scale)); higher = more stable (slower turnover); conditions: genetic background: wild type; temperature: 30 C
Saccharomyces cerevisiae [2] = test: as above
Method: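 MPS profiling in S. cerevisiae of the tFT-X12 degron library: putative degron peptides plus stable controls, 12 aa, fused to the C-terminus of a sfGFP-mCherry timer. Cells are FACS-sorted into 8 mCherry/sfGFP bins and deep-sequenced. PSI runs from 0 (unstable) to 1 (stable). Backgrounds are wild type, das1Δ and doa10Δ at 30 °C, and wild type, das1Δ, cdc34-1 and cdc53-1 at 37 °C; 2-3 technical replicates each.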

[3] = genetic background: cdc34-1, temperature: 37 C
[4] = genetic background: cdc53-1, temperature: 37 C
[5] = genetic background: das1 deletion, temperature: 30 C
[6] = genetic background: das1 deletion, temperature: 37 C
[7] = genetic background: doa10 deletion, temperature: 30 C
[8] = genetic background: wild type, temperature: 30 C
[9] = genetic background: wild type, temperature: 37 C
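Further: PSI is a weighted mean of sequencing reads over stability bins, variants kept only with over 10 reads, mCherry proximal and sfGFP distal, peptide attached via GGGS linker.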

Row | Sequence | protein stability index (Saccharomyces cerevisiae [1]) | protein stability index (Saccharomyces cerevisiae [2]; [3]) | protein stability index (Saccharomyces cerevisiae [2]; [4]) | protein stability index (Saccharomyces cerevisiae [2]; [5]) | protein stability index (Saccharomyces cerevisiae [2]; [6]) | protein stability index (Saccharomyces cerevisiae [2]; [7]) | protein stability index (Saccharomyces cerevisiae [2]; [8]) | protein stability index (Saccharomyces cerevisiae [2]; [9])
1 | RGLWAAIPRKCT | 0.358 ± 0.028 | 0.669 ± 0.04 | 0.74108 ± 0.00026 | 0.645 ± 0.0061 | 0.754 ± 0.016 | 0.179 ± 0.027 | 0.223 ± 0.023 | 0.548 ± 0.02
2 | RGPSQVIVAFFV | 0.49 ± 0.016 | 0.663 ± 0.027 | 0.6843 ± 0.0038 | 0.522 ± 0.026 | 0.688 ± 0.0083 | 0.3186 ± 0.0031 | 0.371 ± 0.026 | 0.5674 ± 0.0018
3 | RGSLLRWFLAAQ | 0.443 ± 0.014 | 0.628 ± 0.031 | 0.707 ± 0.012 | 0.654 ± 0.034 | 0.706 ± 0.022 | 0.289 ± 0.0095 | 0.31 ± 0.029 | 0.541 ± 0.019
4 | RGSRLVPRLLRP | 0.71 ± 0.024 | 0.686 ± 0.028 | 0.705 ± 0.012 | 0.648 ± 0.015 | 0.713 ± 0.0012 | 0.64 ± 0.02 | 0.656 ± 0.03 | 0.677 ± 0.0057
5 | RGWWWFVVVLCR | 0.329 ± 0.028 | 0.165 ± 0.0082 | 0.139 ± 0.0061 | 0.216 ± 0.033 | 0.316 ± 0.0084 | 0.2215 ± 0.00025 | 0.197 ± 0.012 | 0.2951 ± 0.0014
6 | RHIRGLNLIKLI | 0.161 ± 0.044 | 0.316 ± 0.092 | 0.672 ± 0.034 | 0.652 ± 0.025 | 0.69 ± 0.034 | 0.0672 ± 0.022 | 0.0745 ± 0.011 | 0.0777 ± 0.0067
7 | RHQTDIVTATQK | 0.562 ± 0.097 | 0.694 ± 0.05 | 0.724 ± 0.026 | 0.636 ± 0.036 | 0.717 ± 0.012 | 0.642 ± 0.062 | 0.685 ± 0.014 | 0.70375 ± 0.00022
8 | RHVFLRIKVLNL | 0.489 ± 0.085 | 0.564 ± 0.11 | 0.644 ± 0.051 | 0.52 ± 0.016 | 0.5596 ± 0.0049 | 0.344 ± 0.0053 | 0.397 ± 0.015 | 0.5197 ± 0.0025
9 | RIFRCYSFYVVV | 0.336 ± 0.021 | 0.496 ± 0.047 | 0.587 ± 0.029 | 0.393 ± 0.026 | 0.568 ± 0.024 | 0.272 ± 0.029 | 0.267 ± 0.031 | 0.4233 ± 0.0012
10 | RILFSPSTFYLF | 0.397 ± 0.026 | 0.665 ± 0.048 | 0.761 ± 0.037 | 0.705 ± 0.03 | 0.7501 ± 0.0036 | 0.214 ± 0.024 | 0.265 ± 0.031 | 0.487 ± 0.024
11 | RIRRVMHLYTNN | 0.121 ± 0.0048 | 0.475 ± 0.027 | 0.705 ± 0.071 | 0.641 ± 0.027 | 0.708 ± 0.024 | 0.0717 ± 0.0049 | 0.0844 ± 0.012 | 0.109 ± 0.044
12 | RISYKTKINELI | 0.434 ± 0.043 | 0.653 ± 0.038 | 0.735 ± 0.034 | 0.607 ± 0.034 | 0.737 ± 0.01 | 0.262 ± 0.0063 | 0.287 ± 0.052 | 0.5426 ± 0.003
13 | RIVLRPPFNSVA | 0.367 ± 0.077 | 0.619 ± 0.015 | 0.727 ± 0.017 | 0.656 ± 0.035 | 0.7428 ± 0.0017 | 0.176 ± 0.0064 | 0.217 ± 0.018 | 0.48 ± 0.0059
14 | RKKKRNKKKMIM | 0.522 ± 0.044 | 0.716 ± 0.058 | 0.734 ± 0.019 | 0.629 ± 0.019 | 0.706 ± 0.022 | 0.362 ± 0.024 | 0.342 ± 0.09 | 0.621 ± 0.0081
15 | RLDAPGLSRTEN | 0.513 ± 0.12 | 0.66 ± 0.04 | 0.68 ± 0.011 | 0.647 ± 0.044 | 0.683 ± 0.0075 | 0.66 ± 0.026 | 0.646 ± 0.078 | 0.671 ± 0.017
16 | RLFYRLSFVYFL | 0.2655 ± 0.0014 | 0.398 ± 0.025 | 0.4469 ± 0.0038 | 0.378 ± 0.029 | 0.514 ± 0.017 | 0.169 ± 0.0068 | 0.175 ± 0.016 | 0.243 ± 0.015
17 | RLLLLLTCIIYI | 0.256 ± 0.015 | 0.173 ± 0.006 | 0.219 ± 0.023 | 0.194 ± 0.016 | 0.276 ± 0.052 | 0.183 ± 0.026 | 0.16 ± 0.046 | 0.267 ± 0.032
18 | RLPVMFWFVCSF | 0.506 ± 0.042 | 0.561 ± 0.053 | 0.641 ± 0.024 | 0.477 ± 0.026 | 0.6288 ± 0.0029 | 0.47 ± 0.038 | 0.466 ± 0.026 | 0.638 ± 0.055
19 | RLVRILSTILLN | 0.177 ± 0.049 | 0.487 ± 0.079 | 0.638 ± 0.038 | 0.576 ± 0.028 | 0.703 ± 0.052 | 0.0769 ± 0.029 | 0.1 ± 0.014 | 0.0569 ± 0.034
